Values joined by “and” are separate entries in the source; they are usually repeats but may differ in a detail not shown here. Identical values can stand only once.
Target: DENV-4 parental viruses
Test: cell-based or functional assay

B1: Humanized IgG 5H2 ΔD (IgG1 5H2 with a 9-amino-acid deletion, positions 231-239, at the N-terminus of the CH2 domain) (antibody)
heavy: EVQLLESGPGLVKPSETLSLTCTVSGGSISDFYWSWLRQSPGKGLEWIGYAHSRVSAYYNPSLKSRVTISVDTSKNQLSLRLSAVTAADTALYYCARQGTGTTGVSEDFFDLWGQGTKVIVSLASTKGPSVFPLAPSSKSTSGGTAALGCLVKDYFPEPVTVSWNSGALTSGVHTFPAVLQSSGLYSLSSVVTVPSSSLGTQTYICNVDHKPSNTKVDKKVEPKSCDKTHTCPPCPVFLFPPKPKDTLMISRTPEVTCVVVDVSHEDPEVKFNWYVDGVEVHNAKTKPREEQYNSTYRVVSVLTVLHQDWLNGKEYKCKVSNKALPAPIEKTISKAKGQPREPQVYTLPPSRDELTKNQVSLTCLVKGFYPSDIAVEWESNGQPENNYKTTPPVLDSDGSFFLYSKLTVDKSRWQQGNVFSCSVMHEALHNHYTQKSLSLSPGK
light: not shown
- PRNT50 titer: 0.03 µg/mL and 0.05 µg/mL

From patent US20100247549A1
